What was measured:
[1] = target: T1, human CD48 (on primary human peripheral blood mononuclear cells) (human, UniProt P09326 27-220); assay: cell-based or functional assay
T1 sequence: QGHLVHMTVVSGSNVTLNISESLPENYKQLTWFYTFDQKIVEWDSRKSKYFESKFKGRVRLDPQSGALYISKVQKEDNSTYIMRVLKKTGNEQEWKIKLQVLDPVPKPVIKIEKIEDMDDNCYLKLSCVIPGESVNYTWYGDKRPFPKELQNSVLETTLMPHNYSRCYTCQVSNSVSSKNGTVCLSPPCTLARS

[2] = target: T1, human CD48 (on primary human peripheral …); assay: cell-based or functional assay; remark: listed apart in the source
[3] = target: T2, monomeric monkey CD48 expressed with a tag consisting of 2 myc and one 6-His epitopes (monkey); assay: competition ELISA; blocks mfCD48-mmH binding to coated h2B4-hFc
T2 construct: also called mfCD48-mmH; Monomeric monkey CD48-mmH
T2 chain: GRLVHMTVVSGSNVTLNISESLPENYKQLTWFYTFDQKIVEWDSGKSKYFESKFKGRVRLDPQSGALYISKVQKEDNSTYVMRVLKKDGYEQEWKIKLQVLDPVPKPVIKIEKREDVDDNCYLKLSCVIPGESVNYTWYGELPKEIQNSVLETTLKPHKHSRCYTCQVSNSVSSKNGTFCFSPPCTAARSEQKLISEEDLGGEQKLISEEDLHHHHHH
Procedure: (§1) The ability of human anti-CD48 monoclonal antibodies to block human CD48 and monkey CD48 binding to the human cognate ligand, human 2B4, was measured using a competition sandwich ELISA (Table 8). Constant amounts of biotinylated dimeric human CD48 protein expressed as a fusion with mouse IgG2a Fc (“bio-hCD48-mFc” [SEQ ID NO: 387]) or monomeric monkey CD48 expressed with a tag consisting of 2 myc and one 6-His epitopes (“mfCD48-mmH” [SEQ ID NO: 386]) were separately titrated with varying amounts of antibodies. These antibody-protein complexes were incubated (1 hr, 25° C.) before being transferred to microtiter plates coated with a dimeric construct expressing the human 2B4 receptor fused to a either human IgG1 (h2B4-hFc [R&D Systems, Inc., Minneapolis, Minn., Cat. No. 1039-2B]) or mouse IgG2a Fc (h2B4-mFc [SEQ ID NO: 389). After a 1 hr at 25° C. the wells were washed and bound human CD48 was detected with streptavidin conjugated with horse-radish peroxidase (HRP), and monkey CD48 was detected with an HRP conjugated anti-myc polyclonal antibody. The ELISA was developed with a TMB solution to produce a colorimetric reaction and quenched with sulfuric acid before reading absorbance at 450 nm on a Victor X5 plate reader. Sigmoidal dose response curves were fit to the data using Prism™ software. […] (Tables 8 and 9, NB=no binding observed)

[4] = target: T3, biotinylated dimeric human CD48 protein expressed as a fusion with mouse IgG2a Fc (human, biotinylated); assay: competition ELISA; blocks bio-hCD48-mFc binding to coated h2B4-mFc
T3 construct: also called bio-hCD48-mFc; Dimeric human CD48-mFc
T3 chain: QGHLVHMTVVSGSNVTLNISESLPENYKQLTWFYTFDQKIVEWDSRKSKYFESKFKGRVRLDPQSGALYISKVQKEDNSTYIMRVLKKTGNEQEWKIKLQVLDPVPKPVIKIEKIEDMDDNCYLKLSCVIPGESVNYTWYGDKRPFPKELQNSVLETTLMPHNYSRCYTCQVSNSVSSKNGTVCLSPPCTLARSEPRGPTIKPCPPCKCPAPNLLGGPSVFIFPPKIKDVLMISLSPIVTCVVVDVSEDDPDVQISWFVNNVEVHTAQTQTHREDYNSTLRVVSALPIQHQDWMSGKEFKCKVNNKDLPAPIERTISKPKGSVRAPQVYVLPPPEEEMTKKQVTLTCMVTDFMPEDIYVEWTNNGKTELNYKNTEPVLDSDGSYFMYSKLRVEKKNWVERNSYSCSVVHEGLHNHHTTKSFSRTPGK
Procedure: as §1

[5] = target: T3, biotinylated dimeric human CD48 protein …; assay: competition ELISA; blocks bio-hCD48-mFc binding to coated h2B4-hFc
Procedure: as §1

[6] = target: T2, monomeric monkey CD48 expressed with a …; assay: competition ELISA; blocks mfCD48-mmH binding to coated h2B4-mFc
Procedure: as §1

Binder	Inhibition of IFN-gamma Release IC50; Donor 6 [1] [Molar]	Inhibition of IFN-gamma Release IC50; Donor 1 [2] [Molar]	Inhibition of IFN-gamma Release IC50; Donor 2 [2] [Molar]	Inhibition of IFN-gamma Release IC50; Donor 3 [2] [Molar]	Inhibition of IFN-gamma Release IC50; Donor 4 [2] [Molar]	Inhibition of IFN-gamma Release IC50; Donor 5 [2] [Molar]	IC50 [3] [nM]	IC50 [4] [nM]	IC50 [5] [nM]	IC50 [6] [nM]	Inhibition of IFN-gamma Release IC50; Donor 7 [1] [Molar]
H2M1763N (antibody, mouse IgG2, V domains shown, Human variable domains, mouse IgG2 Fc (H2M)) VH: QIQLVQSGAEMKRPGTSVKVSCKASGYTFTSYGINWVRQAPGQGLEWMGWISAYNGDTNYAQKLQGRVTMTTDTSTTTAYMEVRSLRSDDTAVYYCARFLTGTKDYYYGMDVWGQGTTVTVSS VL: DIQMTQSPSSLSASVGDRVTITCQASQDISNFLNWYQQKPGKAPDLLINDASILETGVPSRFSGSGSGTDFTLTINNLQPEDIATYYCQQYDNLPLTFGGGTKVEIK	2.6e-11	4.9e-11	3.4e-11	1.3e-10	7.5e-11	1.9e-11	0.013	0.0055	0.0088	0.0023	1.8e-11
H2M1710N (antibody, mouse IgG2, V domains shown, Human variable domains, mouse IgG2 Fc (H2M)) VH: QVQLVQSGADMKKPGASVRVSCKASGYTFTDYFIHWVRQAPGQGPEWMGWINPDSGATNYAQQFQGRVTMTRDTSISATYMEMSRLRSDDTAVFYCARDKDGSGWYLDDWGQGTLVTVSS VL: EIVLTQSPATLSLSPGERATLSCRASQSVNIYLAWYQQKPGQAPRLLIYDASNRASGIPARFSGSGSGTDFTLTISSLEPEDFAVYYCQQRSNWPPSITFGQGTRLEIK	5e-11	7.8e-10	1.9e-10	1.1e-06	1.5e-09	2.7e-10	0.37	0.49	0.58	0.26	1.4e-10
H2M1811N (antibody, mouse IgG2, V domains shown, Human variable domains, mouse IgG2 Fc (H2M)) VH: QVQLVQSGAEAREPGASVRVSCKASGYTFTDYFIHWVRQAPGQGLEWMGWINPNSGATNFAQKFQGRVTMTRDTSLITAYMDLSRLKSDDAAVFYCARDVDGSGWYLDFWGQGTLVTVSS VL: EIVLTQSPATLSLSPGERATLSCRASQSVSIYLAWYQQKPGQAPRLLIYDASNRATGIPARFSGSGSGTDFTLTISRLEPEDFAVYYCQQRSDWPPSITFGQGTRLEIK		9.1e-11	4.6e-10	8.3e-11	4.8e-10	9.4e-11	0.22		0.49		

The remaining binders from weak to strong by IC50 [3], led by results:

Inhibition of IFN-gamma Release IC50; Donor 6 [1] [Molar]	Inhibition of IFN-gamma Release IC50; Donor 1 [2] [Molar]	Inhibition of IFN-gamma Release IC50; Donor 2 [2] [Molar]	Inhibition of IFN-gamma Release IC50; Donor 3 [2] [Molar]	Inhibition of IFN-gamma Release IC50; Donor 4 [2] [Molar]	Inhibition of IFN-gamma Release IC50; Donor 5 [2] [Molar]	IC50 [3] [nM]	IC50 [4] [nM]	IC50 [5] [nM]	IC50 [6] [nM]	Inhibition of IFN-gamma Release IC50; Donor 7 [1] [Molar]	Binder
1e-10	2.7e-11	1.1e-10	1.9e-10	9.5e-11	1.9e-11	0.24	0.029	0.064	0.062		H2M1764N (antibody, mouse IgG2, V domains shown, Human variable domains, mouse IgG2 Fc (H2M)) VH: QVQLVESGGGVVQPGRSLRLSCAASGFTFSDYGMHWVRQAPGKGLEWVAVIWNDGSNKNYADSVKGRFSISSDSSKNTLYLHMNSLRAEDTAVYYCARSLYSTSPWYFDLWGRGTLVTVSS VL: not shown
	4.8e-11	5.7e-11	1.2e-10	1.1e-10	3.2e-11	0.12		0.045			H2M1709N (antibody, mouse IgG2, V domains shown, Human variable domains, mouse IgG2 Fc (H2M)) VH: QVQLVQSGAEVKKPGASVKVSCKVSGYTLTELSIHWVRQAPGKGLEWMGGFDPEDGETIYAQKFQGRVNMTEDTSTDTAYMELSSLRSDDTTVYFCASLLPYFDYWGQGTLVTVSS VL: EIVLTQSPGTLSLSPGERATLSCRASQSVSSSYLAWYQQKPGQAPRLLIYGASSRATGIPDRFSGSGSGTDFTLSISRLEPEDFAVYFCQQYGSSMYTFGQGTKLEIK
2.2e-11	2.1e-11	7.6e-11		1.1e-10	1.1e-11	0.024	0.022	0.026	0.0025	1e-10	H2M1713N (antibody, mouse IgG2, V domains shown, Human variable domains, mouse IgG2 Fc (H2M)) VH: QVQLVQSGAEVKKPGASVKVSCKASGHTFTNYYIHWVRQAPGQGLEWMGITNPNDGNTRYAQKFQGRISMTWDTSTSTVFMELSSLKSEDTAVYYCAGLRYWFFDLWGRGTPVTVSS VL: DIQMTQSPSSVSASVGDRVTITCRASQDISSWLAWYQQKPGKAPNLLIFAASSLQSGVPSRFSGSGSGTDFTLTISSLQPEDFGTYYCQQTDNFPRTFGQGTKVEIN
9.3e-12	4.9e-11	3e-11	1.1e-10	1.7e-10	1.5e-11	0.023	0.0086	0.022	0.0049	1.9e-11	H2M1707N (antibody, V domains shown, Human variable domains, mouse IgG2 Fc (H2M)) VH: EGQLLESGGGLAQPGGSLRLSCAASGITFGRYAMSWVRQAPGKGLEWVSLISGSGGSTYHADSVKGRFTISRDNSKNTLYLQMNSLRAEDTAVYYCAIYNNYNWFDPWGQGTLVTVSS VL: EIVLTQSPGTLSLSPGERATLSCRASQSVSSNYLAWYQQKPGQAPRLLIYDASSRATDIPDRFSGSGSGTDFTLTISRLEPEDFAVYYCQQYGSSPRTFGQGTKVEIK
	2e-11	2.8e-11	7.2e-11	4.8e-11	1.1e-11	0.017		0.014			H2M1712N (antibody, mouse IgG2, V domains shown, Human variable domains, mouse IgG2 Fc (H2M)) VH: QIQLVQSGAEMKRPGTSVKVSCKASGYTFSSYGINWVRQAPGQGLEWMGWISAYNGDTNYAQKLQGRVTMTTDTSTTTAYMEVRSLRSDDTAVYYCARFLTGTKDLYYGMDVWGQGTTVTVSS VL: DIQMTQSPSSLSASVGDRVTITCQASQDISNFLNWYQQKPGKAPDLLINDASILETGVPSRFSGSGSGTDFTLTINSLQPEDIATYYCQQYDNLPLTFGGGTKVEIK

Source: patent publication US20130230533A1 (Regeneron, published 2013)
